Experimental data reported in US20230190883A1, “STABLE PEPTIDES HAVING RENALASE AGONIST ACTIVITY” (Bessor Pharma, LLC, priority 2020, published 2023).
Marks after values point to notes of the source that are not given here.

Tested on: carrageenan-induced Paw edema
Assay: carrageenan-induced paw edema (CPE) model in mice
Assay type: in vivo, CD-1 mice
Details: 3 mpk
Excerpt: This test is a rapid in vivo model for evaluation of anti-inflammatory efficacy of test articles. The CPE model in mice quantitativdy assesses inhibition of edema enduced by subplantarinjection of carrageenan. […] Carrageenan-induced inflammation invoves extravasation of polymorphonuclear leukocytes from circulation to the site of inflammation. The subsequent release of myeloperoxidase and other cytokines within the interstitial tissues results in plasma exudation into the site of inflammation. The increased paw volume is measured by water displacement. Anti-inflammatory drugs reduce the paw edema.
• 1. Receive (SOP 1910, SOP 1920) and quarantine (SOP 560) 125 CD-1 mice (Charles River Laboratories, male, 5-6 weeks old). • 2. Animals are ear tagged (SOP 810), weighed, and sorted into 9 groups with 10 animals/group and 5 groups of 7 animals/group based upon average body weight. • 3. Prepare 3% carrageenan solution: • 1) Preparation at least 2 weeks in advance of use. • 2) Weigh out 600 mg A-carrageenan into a glass beaker. • 3) Add 20 ml deionized water. • 4) Stir on mild heat until carrageenan fully dissolved. • 5) Cool solution to ambient temperature. • 6) Store at 4-8° C. • 4. Until the day of use the renalase peptides are stored at -20° C. as dry powder. • 5. DAY 0 • a. Prepare test material in sterile saline (vehicle). • b. On the day of dosing, renalase peptides are dissolved. • c. On day prior to administration check carrageenan solution for clarity (no visible evidence of contamination). • 1) Equilibrate carrageenan to ambient temperature. • d. Record mouse weights in laboratory notebook. • e. Measure and record paw initial paw volumes: • 1) Place beaker of water on balance and tare to zero. • 2) Place right hind limb in the beaker of water on the scale with the top of the hock centered in the meniscus of the water. Record read-out on the scale. • 3) The foot must be dried after each measurement as wet feet will change the readout. • 4) Re-tare the scale between measurements to account for decrease in water volume. • f. […]
The test was also conducted to compare the inhibition of inflammation by peptide 10 as compared to the corresponding peptide fragment without the alanine substitution at position 220 (peptide 81).

B1: Renalase: RNLS is a 37 kD secretory protein that is primarily made by kidney proximal renal tubules cells (protein, UniProt Q5VYX0 18-342, looked up)
Renalase: ALLRRQTSGPLYLAVWDKAEDSGGRMTTACSPHNPQCTADLGAQYITCTPHYAKKHQRFYDELLAYGVLRPLSSPIEGMVMKEGDCNFVAPQGISSIIKHYLKESGAEVYFRHRVTQINLRDDKWEVSKQTGSPEQFDLIVLTMPVPEILQLQGDITTLISECQRQQLEAVSYSSRYALGLFYEAGTKIDVPWAGQYITSNPCIRFVSIDNKKRNIESSEIGPSLVIHTTVPFGVTYLEHSIEDVQELVFQQLENILPGLPQPIATKCQKWRHSQVTNAAANCPGQMTLHHKPFLACGGDGFTQSNFDGCITSALCVLEALKNYI
With B1 as the molecule, how does the “percent change from control, paw edema, 2 hr after carrageenan” value (2 hr after carrageenan) read?
Its value is 60.1* percent.

What about the “percent change from control, paw edema, 4 hr after carrageenan” value (4 hr after carrageenan) of the same molecule?
Its value is 35.3* percent.

And the “percent change from control, paw edema, 6 hr after carrageenan” value (6 hr after carrageenan)?
Its value is 4.5%.

And the “percent change from control, paw edema, 10 hr after carrageenan” value (10 hr after carrageenan)?
The value was 23.7%.
